We go through 1 molecule from patent US20040265809A1 (published 2004).

For the assay, the target named is T1, rat RORβ ligand-binding domain (RORβ-LBD), residues 201-452, polyhistidine-tagged (rat, UniProt P45446 212-463).
T1 construct: Expressed in E. coli; The ligand pocket holds stearic acid (first crystal) or all-trans retinoic acid (second crystal); One monomer per asymmetric unit; also called rRORβ-LBD; RORbeta LBD; not shown: N-terminal polyhistidine tag and thrombin cleavage site from the pet15b vector (Novagen); the tagge
T1 sequence: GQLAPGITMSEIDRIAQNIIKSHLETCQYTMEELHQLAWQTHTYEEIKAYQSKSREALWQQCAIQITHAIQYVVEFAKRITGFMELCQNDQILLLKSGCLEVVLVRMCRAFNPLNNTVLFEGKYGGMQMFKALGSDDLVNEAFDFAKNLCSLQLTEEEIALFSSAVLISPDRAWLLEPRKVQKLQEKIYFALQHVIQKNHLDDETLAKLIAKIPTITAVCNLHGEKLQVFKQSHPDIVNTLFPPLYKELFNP
In words: co-crystallisation, hanging drop, stearate complex. How it is done:
The RORβ-LBD stearate complex was crystallized at 22° C. by vapor diffusion in the hanging-drop mode. In the crystallisation trials, the protein was used without further purification and co-crystallized with a 3-molar excess of SRC-1⁶⁸⁶⁻⁷⁰⁰([…]) NR-interacting peptide co-activator sequence. Addition of the peptide was crucial to obtain crystals. In the initial trial to obtain crystallization conditions, a sparse matrix crystallization screen was done with a home screen. For each crystallization trial, a 4 μl drop was prepared by mixing 2 μl of purified protein (5.8 mg/ml) with an equal volume of reservoir solution. The reservoir contained 500 μl of the precipitating solution. A crystal measuring […] at 22° C. in PEG 6000 15% and 100 mM Tris HCl at pH=8.0 grew within about 2 weeks. This crystal was used in a first data collection run (as described below).

For RHKILHRLLQEGSPS (also called SRC1 peptide) [SRC-1 686-700 NR-interacting co-activator peptide], the binding result was “binds”.
